This data set in a line: yeast display, Sf9 membrane polyspecificity reagent, FACS + sequencing; frameworks hold sequencing errors. Summed up:
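A nanobody's polyreactivity label depends on the gate it was sorted from. Yeast display cells were stained with 10% biotinylated, detergent-solubilized Sf9 membrane reagent for 1 hour at 4 °C, enriched on streptavidin microbeads and sorted by FACS. The low and high (top ~1%) gates were set on anti-HA fluorescence for expression and streptavidin fluorescence for reagent binding.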
In the case of “QVQLVESGGGLVQAGGSLRLSCAASGRIFDGYDMGGYRQAPGQEREWVAAITSVGSTNYADSVKGRFTISRDNAKNTVYLQMNSLKPDDTAVYYCAAVLYVFYDDYGYWEYFSQYDYWGQGTQVTVSS”, the “polyreactivity (PSR sort gate)” value was “low polyreactivity”.

Take “QVQLVESGGGLVQAGGSLRLSCAASGRIFYRYVMGWYRQAPGKERELVAAISRGGGTNYADSVKGRFTISRDNAKNTVYLQMNSLKPEDTAVYYCAARGSPGAGYYWGQGTQVTVSS”: the “polyreactivity (PSR sort gate)” value is listed as “high polyreactivity”.

Take “QVQLVESGGGLVQAGGSLRLSCAASGFIFALYARGWYRQAPGTERELVAAITSSSSTYAASVKGRFTISRDNAKNTVYLQMNSLKPEDTAVYYCAADTYSYRYSNDYWGQGTQVTVSS”: the “polyreactivity (PSR sort gate)” value is on record as “low polyreactivity”.

Take “QVQLVESGGGLVQAGGSLRLSCAASGRIFVKYVMGWYRQAPGKERELVAAISSRGGSTYYADSVKGRFTSSRDNAKNTVYLQMNSLKPEDTAVYYCNKAFTARDDYWGQGTQVTVSS”: the “polyreactivity (PSR sort gate)” value is on record as “high polyreactivity”.

Consider “QVQLVESGGGLVQAGGSLRLSCAASGGIFPVYAMGWSRQAPGKERELVATITSDGDTNYADSVKGRFTISRDNAKNTVYLQMNSLKPEDTAVYYCNKDLDYIIVQPHSPELEYWGQGTQVTVSS”, for which the “polyreactivity (PSR sort gate)” value was “low polyreactivity”.

Consider “QVQLVESGGGLVQAGGSLRLSCAASGFTFAKNAMGWYRQAPGKERELVATISRSGGSTYYADSVKGRFTISRDNAKNTVYLQMNSLKPEDTAVYYCAADRSYGVLGNEGGYWGQGTQVTVSS”, for which the “polyreactivity (PSR sort gate)” value is listed as “high polyreactivity”.

With “QVQLVESGGGLVQAGGSLRLSCAASGFIFAWYAMGWYRQAPGKERELVARISRGGSTYYADSVKGRFTISRDNAKNTVYLHMNSLKPEYTAVYYCTAGAAYTYTRYDYWGQGTQVTVSS”, the “polyreactivity (PSR sort gate)” value is “high polyreactivity”.

As to “QVQLVESGGGLVQAGGSLRLSCAASGSTFAWYAMGWYRQAPGKERELVAGIWNTGRTYYADSVKGRFTISRDNAKNTVYLLMHSLKPEDTAVYYCAALYNSPNVTYYYWGQGTQVTVSS”, the “polyreactivity (PSR sort gate)” value is “high polyreactivity”.

Consider “QVQLVESGGRLVQAGGSLRLSCAASGFIFDSYAMGWYRQAPGKERELVAAISWSGGRTYYADSVKGRFTISRDNAKNTVYLQMNSLKPEDTAVYYCNVRTKLSTSYDYWGQGTQVTVSS”, for which the “polyreactivity (PSR sort gate)” value is given as “high polyreactivity”.

As for “QVQLVESGGGLVQAGGSLRLSCAASGSIFSAYGMGWYRQAPGKERELVAAITRSGGSTYYADSVKGRFTISRDNAKNTVYLQMNSLKPEDTAVYYCAAKSIIRPYAPRRDDMDYWGQGTQVTVSS”, the “polyreactivity (PSR sort gate)” value is recorded as “low polyreactivity”.

In the case of “QVQLVESGGGLVQAGGSLRLSCAASGFIFRKYAMGWYRQAPGKERELVAAITASGGSTYYADSVKGRFTISRDNAKNTVYLQMNSLKPEDTAVYYCATDYHGAERWLKYDYWGQGTQVTVSS”, the “polyreactivity (PSR sort gate)” value was “high polyreactivity”.

For “QVQLVESGGGLVQAGGSLRLSCAASGITIVNYVMGWYRKAPGKERELVAAISIGGGTYYADSVKGRFTISRDNAKNTVYLQINSLKPEDTAVYYCNASYGGLSFYIGVYVTGYDYWGQGTQVTVSS”, the “polyreactivity (PSR sort gate)” value is “low polyreactivity”.

Regarding “QVQLVESGGGLVQAGGSLRLSCAASGSIFDVYAMGWYRQAPGKERELVAAITFSGGSTYYADSVKWRFTISRDNAKNTVYLQMNSLNPEDTAVYYCSVSRSYLYPVYGYYTWLGDYWGQGTQVTVSS”, the “polyreactivity (PSR sort gate)” value is listed as “low polyreactivity”.

Turning to “QVQLVESGGVLVQAGGSLRLSCAASGSIFYVNTMGWYRQAPGKDRELVADISSGDSTYYADSVKGRFTISRDNAKNTVYLQMNSLKPEDTAVFYCNADVYSWVSGKEGDYWGQGTQVTVSS”, the “polyreactivity (PSR sort gate)” value is reported as “low polyreactivity”.

On to “QVQLVESGGGLDQAGGSLRLSCAASGLTFYTYAMGWYRQAPGTERELVAAIRWRGGRTYYADSVKGRFTISRDNAKNTVYLQMNSLKPEDTAVYYCAADYSTLYKYDYWGQGTQVTVSS”, for which the “polyreactivity (PSR sort gate)” value is “low polyreactivity”.

Turning to “QVQLVESGGGLVQAGGSLPLSCAASGSIFQLNAMGWYRQAPGKERELVGSIRDGGSTSYADSVKGRFTISRDNAKNTVYLQMNSLKPADTAVYYCADLKLYIYDYWGQGTQVTVSS”, the “polyreactivity (PSR sort gate)” value was “high polyreactivity”.

Values taken from the nanobody polyreactivity screen of Harvey et al. (2022).
